Laboratory results from article PMC6077149 (Molecular Therapy. Methods & Clinical Development, 2018).

Columns and labels:
[1] = biological target: Fc (huIgG1-Fc fused to the Avi tag) (human); assay: SEC
[2] = biological target: DARPin SB4 fused to the measles virus H protein (DARPin-H); assay: flow cytometry on cells
[3] = biological target: DARPin 2B7 fused to the measles virus H protein (DARPin-H); assay: flow cytometry on cells
[4] = biological target: four DARPins (SD8, SK14, 2K19, 2B7) and the scFv Fab7; assay: flow cytometry on cells
SEC = biological target: the molecule itself; assay: SEC

Fc (huIgG1-Fc fused to the Avi tag) (domain or fragment), sequence (P01857 1-350): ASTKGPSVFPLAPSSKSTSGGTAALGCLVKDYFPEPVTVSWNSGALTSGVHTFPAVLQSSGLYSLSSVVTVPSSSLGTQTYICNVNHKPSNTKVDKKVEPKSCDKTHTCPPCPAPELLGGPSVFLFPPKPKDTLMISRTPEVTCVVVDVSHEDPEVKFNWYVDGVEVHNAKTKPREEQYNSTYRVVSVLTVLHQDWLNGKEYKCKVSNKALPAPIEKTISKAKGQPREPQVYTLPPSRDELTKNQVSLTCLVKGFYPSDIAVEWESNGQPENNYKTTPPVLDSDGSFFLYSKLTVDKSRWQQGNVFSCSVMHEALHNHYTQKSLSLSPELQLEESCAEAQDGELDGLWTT

Molecule	stoichiometry N [1]	Kd [2] [nM]	Kd [3] [nM]	Kd [4] [nM]	stoichiometry N (SEC)
Fc (huIgG1-Fc fused to the Avi tag) (domain or fragment)	2				
GluA4-Fc (amino-terminal domain of GluA4 fused to huIgG1-Fc and an Avi tag) (Fc fusion, biotin on the Avi tag in the biotinylated form (roughly 76% biotinylated)) AFPSSVQIGGLFIRNTDQEYTAFRLAIFLHNTSPNASEAPFNLVPHVDNIETANSFAVTNAFCSQYSRGVFAIFGLYDKRSVHTLTSFCSALHISLITPSFPTEGESQFVLQLRPSLRGALLSLLDHYEWNCFVFLYDTDRGYSILQAIMEKAGQNGWHVSAICVENFNDVSYRQLLEELDRRQEKKFVIDCEIERLQNILEQIVSVGKHVKGYHYIIANLGFKDISLERFIHGGANVTGFQLVDFNTPMVTKLMDRWKKLDQREYPGSETPPKYTSALTYDGVLVMAETFRSLRRQKIDISRRGNAGDCLANPAAPWGQGIDMERTLKQVRIQGLTGNVQFDHYGRRVNYTMDVFELKSTGPRKVGYWNDMDKLVLIQD		19	8.4	1.6 to 3.7	4
